Results on 1 molecule are retold here after US20090203616A1.

No end group written: not given here.

The experiment deals with α9α10 subtype of the nicotinic acetylcholine receptor (nAChR) (rat) (UniProt P43144). The experiment is described as follows: cell-based or functional assay.
Chain of α9α10 subtype of the nicotinic acetylcholine receptor (nAChR) (rat) (P43144 26-479, chain 1 of 2): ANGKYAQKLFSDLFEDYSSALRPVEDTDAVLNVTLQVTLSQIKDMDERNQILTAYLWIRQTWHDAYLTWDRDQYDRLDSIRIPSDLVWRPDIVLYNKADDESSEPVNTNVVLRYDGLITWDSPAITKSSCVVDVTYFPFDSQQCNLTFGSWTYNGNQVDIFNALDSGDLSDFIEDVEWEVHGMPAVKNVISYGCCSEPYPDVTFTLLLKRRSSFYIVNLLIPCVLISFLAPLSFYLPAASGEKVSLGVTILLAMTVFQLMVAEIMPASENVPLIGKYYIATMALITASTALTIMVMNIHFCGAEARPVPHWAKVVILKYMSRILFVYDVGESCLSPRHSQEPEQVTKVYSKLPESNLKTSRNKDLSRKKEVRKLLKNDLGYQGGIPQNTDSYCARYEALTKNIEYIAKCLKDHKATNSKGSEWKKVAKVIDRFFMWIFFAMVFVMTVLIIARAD
Chain of α9α10 subtype of the nicotinic acetylcholine receptor (nAChR) (rat) (Q9JLB5 25-447, chain 2 of 2, further chain): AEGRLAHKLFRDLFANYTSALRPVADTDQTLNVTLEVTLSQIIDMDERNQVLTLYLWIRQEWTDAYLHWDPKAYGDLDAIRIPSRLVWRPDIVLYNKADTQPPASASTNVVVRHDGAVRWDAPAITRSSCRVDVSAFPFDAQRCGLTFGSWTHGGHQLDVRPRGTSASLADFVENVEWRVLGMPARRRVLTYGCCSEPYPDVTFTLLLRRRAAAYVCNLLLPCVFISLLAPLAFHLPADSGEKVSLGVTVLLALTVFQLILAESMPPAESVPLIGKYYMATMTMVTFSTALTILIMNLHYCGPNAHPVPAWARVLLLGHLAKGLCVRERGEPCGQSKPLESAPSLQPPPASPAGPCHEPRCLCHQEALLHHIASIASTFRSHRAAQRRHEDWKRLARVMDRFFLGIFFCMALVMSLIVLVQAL

B1: RgIA-Cys-amide (peptide)
peptide: GCCSDPRCRYRC
modifications: not fully specified (C-terminus); ends and bridges not checked
The molecule B1 came in with an IC50 (activity on α9α10 nAChR, oocytes as in Example 1) of 7.8 nM.
